# Measurements as given in PMC7316235, “Computational and structure-guided design of phosphoinositide substrate specificity into the tyrosine specific LMW-PTP enzyme” (PLoS ONE, 2020).
# Like-named read-outs stand apart in the source and are kept apart here.
# T1: LMW-PTP (LMW-PTPB) (Homo sapiens, UniProt P24666, L14R/I17T, form not given)
# T1 construct: gene ACP1; N-terminal 6xHis tag (pNIC28a-Bsa4, TEV-cleavable; cleavage described only for crystallisation); E. coli BL21-DE3
# T1 sequence (P24666 1-158 isoform P24666-2 L14R/I17T): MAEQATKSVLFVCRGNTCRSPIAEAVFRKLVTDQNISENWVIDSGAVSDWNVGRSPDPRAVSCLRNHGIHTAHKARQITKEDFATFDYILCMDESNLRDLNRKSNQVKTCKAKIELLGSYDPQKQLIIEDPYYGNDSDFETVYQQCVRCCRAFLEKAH
# T2: LMW-PTP (LMW-PTPB) (Homo sapiens, UniProt P24666, L14R/I17K, form not given)
# T2 construct: gene ACP1; N-terminal 6xHis tag (pNIC28a-Bsa4, TEV-cleavable; cleavage described only for crystallisation); E. coli BL21-DE3
# T2 sequence (P24666 1-158 isoform P24666-2 L14R/I17K): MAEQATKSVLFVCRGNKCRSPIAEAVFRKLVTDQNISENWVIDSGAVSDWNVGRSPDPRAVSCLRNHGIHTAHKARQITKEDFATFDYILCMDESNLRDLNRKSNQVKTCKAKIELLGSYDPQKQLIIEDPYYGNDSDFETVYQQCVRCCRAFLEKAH
# How the values were obtained:
# [1] = target: T1, LMW-PTP (LMW-PTPB); experiment: malachite green phosphate release, Michaelis-Menten fit; format: biochemical; conditions: pH 5.5, 37 °C, diC8 lipid
# Description: (§1) malachite green phosphate release, Michaelis-Menten fit on LMW-PTP (LMW-PTPB)
# [2] = target: T2, LMW-PTP (LMW-PTPB); experiment: as above; format: biochemical; conditions: pH 5.5, 37 °C, diC8 lipid
# Description: as §1
# [3] = target: T2, LMW-PTP (LMW-PTPB); experiment: pNPP assay, Michaelis-Menten fit; format: biochemical; conditions: pH 5.5, 37 °C; read-out: RK / Km
# Description: (§2) pNPP assay, Michaelis-Menten fit on LMW-PTP (LMW-PTPB)
# [4] = substrate: CCCCCCCC(=O)OC[C@H](COP(=O)(O)O[C@@H]1[C@H](O)[C@H](OP(=O)(O)O)[C@@H](O)[C@H](OP(=O)(O)O)[C@H]1O)OC(=O)CCCCCCC; experiment: malachite green phosphate release, Michaelis-Menten fit; format: biochemical, Homo sapiens; conditions: pH 7.5, 37 °C, diC8 lipid
# Description: malachite green phosphate release, Michaelis-Menten fit on MTMR2
# [5] = substrate: O=[N+]([O-])c1ccc(OP(=O)(O)O)cc1; experiment: pNPP assay, Michaelis-Menten fit; format: biochemical, Homo sapiens; conditions: pH 5.5, 37 °C
# Description: as §2
# [6] = substrate: N[C@@H](Cc1ccc(OP(=O)(O)O)cc1)C(=O)O; experiment: malachite green phosphate release, Michaelis-Menten fit; format: biochemical, Homo sapiens; conditions: pH 5.5, 37 °C
# Description: as §1
molecule,measurement,setting,value
CCCCCCCC(=O)OC[C@H](COP(=O)(O)O[C@H]1[C@H](O)[C@@H](OP(=O)(O)O)[C@H](O)[C@@H](O)[C@H]1O)OC(=O)CCCCCCC [PI(5)P],Km,[1]; read-out: RT / Km,29.2 ± 3.7 µM
same,Km,[1]; read-out: RTK / Km,26.2 ± 3.9 µM
same,Km,[2]; read-out: RK / Km,35.9 ± 6.3 µM
same,Km,[2]; read-out: RKK / Km,27.2 ± 7 µM
CCCCCCCC(=O)OC[C@H](COP(=O)(O)O[C@@H]1[C@H](O)[C@H](OP(=O)(O)O)[C@@H](O)[C@H](O)[C@H]1O)OC(=O)CCCCCCC [PI(3)P],Km,[2]; read-out: RK / Km,22.9 ± 5 µM
O=[N+]([O-])c1ccc(OP(=O)(O)O)cc1 [pNPP],Km,[3],1390 ± 105 µM
CCCCCCCC(=O)OC[C@H](COP(=O)(O)O[C@H]1[C@H](O)[C@@H](O)[C@H](OP(=O)(O)O)[C@@H](O)[C@H]1O)OC(=O)CCCCCCC [PI(4)P],Km,[2]; read-out: RK / Km,30.7 ± 3.5 µM
"MTMR2 (Homo sapiens) (protein, E. coli BL21-DE3) MEKSSSCESLGSQPAAARPPSVDSLSSASTSHSENSVHTKSASVVSSDSISTSADNFSPDLRVLRESNKLAEMEEPPLLPGENIKDMAKDVTYICPFTGAVRGTLTVTNYRLYFKSMERDPPFVLDASLGVINRVEKIGGASSRGENSYGLETVCKDIRNLRFAHKPEGRTRRSIFENLMKYAFPVSNNLPLFAFEYKEVFPENGWKLYDPLLEYRRQGIPNESWRITKINERYELCDTYPALLVVPANIPDEELKRVASFRSRGRIPVLSWIHPESQATITRCSQPMVGVSGKRSKEDEKYLQAIMDSNAQSHKIFIFDARPSVNAVANKAKGGGYESEDAYQNAELVFLDIHNIHVMRESLRKLKEIVYPNIEETHWLSNLESTHWLEHIKLILAGALRIADKVESGKTSVVVHCSDGWDRTAQLTSLAMLMLDGYYRTIRGFEVLVEKEWLSFGHRFQLRVGHGDKNHADADRSPVFLQFIDCVWQMTRQFPTAFEFNEYFLITILDHLYSCLFGTFLCNSEQQRGKENLPKRTVSLWSYINSQLEDFTNPLYGSYSNHVLYPVASMRHLELWVGYYIRWNPRMKPQEPIHNRYKELLAKRAELQKKVEELQREISNRSTSSSERASSPAQCVTPVQTVV",Km,[4],62 ± 4 µM
same,kcat,[4],348 ± 17 x 10^-3 s^-1
"LMW-PTP (LMW-PTPB) (Homo sapiens) (protein, N-terminal 6xHis tag (pNIC28a-Bsa4, TEV-cleavable; cleavage described only for crystallisation); E. coli BL21-DE3) MAEQATKSVLFVCLGNICRSPIAEAVFRKLVTDQNISENWVIDSGAVSDWNVGRSPDPRAVSCLRNHGIHTAHKARQITKEDFATFDYILCMDESNLRDLNRKSNQVKTCKAKIELLGSYDPQKQLIIEDPYYGNDSDFETVYQQCVRCCRAFLEKAH",Km,[5],476 ± 30.2 µM
same,kcat,[5],6.03 ± 0.106 s⁻¹
same,kcat/Km,[5],12700 ± 670 M⁻¹ s⁻¹
same,Km,[6],307 ± 29 µM
same,kcat,[6],0.000226 ± 1.9e-05 s⁻¹
same,kcat/Km,[6],0.735 ± 0.054 M⁻¹ s⁻¹
